Laboratory results published in patent publication US20170218389A1, “METHODS AND COMPOSITIONS FOR STOMATA REGULATION, PLANT IMMUNITY, AND DROUGHT TOLERANCE” (priority 2016, published 2017).

Experiments:
[1] = system: stomata of Arabidopsis epidermal peels; assay: Stomatal aperture in epidermal peels of Col-0 and AtGCN4 overexpressor lines; assay type: cell-based; settings: coronatine treatment
Protocol: A representative histogram is depicted of stomatal aperture in Arabidopsis plant epidermal peels from wild-type Col-0 and GCN4-overexpressing (AtGCN4-OE6 and AtGCN4-OE16) lines measured 4 hours after treatment with MES buffer, COR, ABA, or COR+ABA.
Upon detection of PAMPs, stomata rapidly closes to prevent entry of the pathogen into apoplast (Melotto et al., 2006; Lee et al., 2013). […] Epidermal peels of AtGCN4 overexpressing lines were used to investigate whether stomata reopen after treatment with MES buffer (stomata opening buffer; control) or the host pathogen P. syringae pv. tomato DC3000. In wild-type Col-0, stomata reopened 3 hpi, while in the AtGCN4 overexpressor lines (AtGCN4-OE6 and AtGCN4-OE16), stomata remained closed even 4 hpi with P. syringae pv. tomato DC3000. Stomatal aperture was measured after ABA and coronatine treatments in order to investigate stomatal function in AtGCN4 overexpressor lines. ABA treatment induces stomatal closure in plants. After ABA treatment, the stomatal aperture size was reduced due to closing in both wild-type Col-0 and the AtGCN4 overexpressor lines.

[2] = target: T1, Jasmonate-Zim-Domain Protein 9 (JAZ9, At1g70700), full-length, Q8W4J8
T1 chain: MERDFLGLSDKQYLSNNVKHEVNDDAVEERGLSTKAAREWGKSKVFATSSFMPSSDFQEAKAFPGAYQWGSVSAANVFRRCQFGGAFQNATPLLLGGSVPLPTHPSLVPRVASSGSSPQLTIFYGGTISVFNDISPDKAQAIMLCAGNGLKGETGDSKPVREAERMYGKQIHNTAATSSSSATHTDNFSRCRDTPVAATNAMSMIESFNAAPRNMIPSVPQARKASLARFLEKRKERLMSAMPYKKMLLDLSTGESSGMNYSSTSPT

[3] = target: T2, AtGCN4 (Arabidopsis thaliana GCN4, general control non-repressible 4, At3G54540) (Arabidopsis thaliana, UniProt Q9M1H3 1-723); assay: title of Example 19 (yeast two-hybrid, BiFC)
T2 construct: Yeast two-hybrid fusion; in BiFC the C-terminal half of YFP was fused to the N-terminus of AtGCN4 (c-YFP-AtGCN4); also called c-YFP-AtGCN4
T2 sequence: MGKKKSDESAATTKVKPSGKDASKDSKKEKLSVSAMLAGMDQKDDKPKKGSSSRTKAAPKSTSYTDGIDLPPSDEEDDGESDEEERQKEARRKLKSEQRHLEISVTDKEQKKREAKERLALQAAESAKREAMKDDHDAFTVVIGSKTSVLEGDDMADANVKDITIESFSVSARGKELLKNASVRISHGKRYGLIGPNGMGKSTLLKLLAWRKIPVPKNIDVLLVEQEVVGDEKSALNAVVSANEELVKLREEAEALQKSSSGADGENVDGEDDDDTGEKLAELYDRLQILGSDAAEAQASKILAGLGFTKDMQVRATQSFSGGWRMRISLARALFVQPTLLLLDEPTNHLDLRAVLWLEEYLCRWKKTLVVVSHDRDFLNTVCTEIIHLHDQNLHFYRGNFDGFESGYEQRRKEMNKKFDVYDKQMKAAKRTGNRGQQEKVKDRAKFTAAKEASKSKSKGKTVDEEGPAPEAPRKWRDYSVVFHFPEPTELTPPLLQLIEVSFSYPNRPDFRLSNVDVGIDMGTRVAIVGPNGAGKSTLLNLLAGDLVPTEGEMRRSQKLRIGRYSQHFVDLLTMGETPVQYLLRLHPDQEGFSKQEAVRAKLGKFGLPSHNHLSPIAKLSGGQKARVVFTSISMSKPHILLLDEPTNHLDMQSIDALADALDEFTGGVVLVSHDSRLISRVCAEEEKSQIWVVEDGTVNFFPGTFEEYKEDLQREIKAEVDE
Excerpt: Stable transgenic lines were developed expressing GFP fused to the C-terminal end of AtGCN4 and driven under its native promoter. AtGCN4-GFP localized in guard cells, plasma membrane, and cytoplasm. Without being limited by theory, as AtGCN4 localized in the plasma membrane and guard cells, and plays role in the stomatal function, the present inventors reasoned that AtGCN4 interacts with other proteins responsible for stomatal function, such as SLAC1 and RIN4. SLAC1 closes stomata on ABA signaling (Vahisalu et al., 2008) and RIN4 activates a plasma membrane H⁺-ATPase and opens stomata (Liu et al., 2009). A yeast two-hybrid system between GCN4:SLAC1 and GCN4:RIN4 was used to investigate potential protein-protein interactions. AtGCN4 interacted with SLAC1 and RIN4. A BiFC assay (Hu et al., 2002) was used to verify these interactions in planta. AtGCN4 was co-transformed in yeast with either SLAC1 or RIN4 to observe protein-protein interaction using a yeast two-hybrid system. […] Protein-protein interactions were observed as yellow fluorescence with an equivalent bright field image. […] Protein-protein interactions were observed as yellow fluorescence while the plasma membrane was visualized as red fluorescence. […]

How did the Stomatal aperture size ([1]; Col-0 plants) turn out when CC[C@H]1C=C(C(=O)N[C@@]2(C(=O)O)C[C@@H]2CC)[C@H]2CCC(=O)[C@H]2C1 [coronatine] was run?
The Stomatal aperture size was “increased aperture size”.

What about the Stomatal aperture size ([1]; GCN4 overexpressor lines) of the same molecule?
Its Stomatal aperture size is “did not increase”.

B1: His-tagged NHR1A protein expressed in E. coli (full-length recombinant AtNHR1A, N-terminal His-tagged fusion protein) (protein)
chain: MTIVSTCCPFGLSNVTKCINFVQIKEAKTMVKYNFKKITVVPNGKQFVDIVLSRTQRQTPTVVHKGDRICKLRSFYMRKVKFTESNFNEKLSAIIDEFPRLKEIQPFYEDLLHVLYNKDHYKLALGQVNTAKNKISKIAMDYVKLLKHGDSLYRCKCLKVAALGRMCTVMKGIGPSLAYLEQVRQHIARLPSIDPNTRTLLICGCPNVGKSSFMNKVTRADVAVQPYAFTTKSLFLGHTDYKCLRYQVIDTPGLLDREIEDRNIIELCSITALAHIRAAVLFFLDISGSCGYTIAQQASLFHNIKSVFKNKPLVIVCNKTDLMPMENLSEEDRKLIEEMKDEAMKTEMGASEEAVILEMSTLTEEGVMSRLLDQRVAAKMKSKKIGDHLNRFHVAMPKSRDDQERLPCIPQVAGEKEKRKTEKDLEDENGGAGVYSASLKKNYILAKEEWKDDIIPEICDCHNVADFVDSDILNRLEELTSEESLRKAEEEEVGFEIEGEELTEKEKNDLAAIRKKKALLIEESRLKKSNAQNRAAVPRKFDKDKKFTRKRMGRELSSLGLDPSSALNRARSKSRGRKRERYDDLSNDAMDVDVNDDEQHKKKKMCLRSKSRSLSRSRSVSRPPHEVVPGEGFKDSSQKIKAIKIGHKSHRKRDKAARRGEADRVIPSLKPKHLFSGKRGNGKNQRR
How did the “rate of GTP hydrolysis” value [2] turn out when B1 was run?
Its value is “in the presence of JAZ9, the rate of GTP hydrolysis significantly decreased”.

B2: RIN4 (Rpm1 Interaction Protein 4) (other, UniProt Q8GYN5 1-211, looked up)
chain: MARSNVPKFGNWEAEENVPYTAYFDKARKTRAPGSKIMNPNDPEYNSDSQSQAPPHPPSSRTKPEQVDTVRRSREHMRSREESELKQFGDAGGSSNEAANKRQGRASQNNSYDNKSPLHKNSYDGTGKSRPKPTNLRADESPEKVTVVPKFGDWDENNPSSADGYTHIFNKVREERSSGANVSGSSRTPTHQSSRNPNNTSSCCCFGFGGK
notes: Yeast two-hybrid fusion; in BiFC the N-terminal half of YFP was fused to the C-terminus of RIN4 (RIN4-nYFP); also called RIN4-nYFP
Does B2 bind [3]?
Result: binds

B3: SLAC1 (Slow Anion Channel-Associated 1) (other, UniProt Q9LD83 1-556, looked up)
chain: MERKQSNAHSTFADINEVEDEAEQELQQQENNNNKRFSGNRGPNRGKQRPFRGFSRQVSLETGFSVLNRESRERDDKKSLPRSGRSFGGFESGGIINGGDGRKTDFSMFRTKSTLSKQKSLLPSIIRERDIENSLRTEDGETKDDSINENVSAGRYFAALRGPELDEVKDNEDILLPKEEQWPFLLRFPIGCFGICLGLSSQAVLWLALAKSPATNFLHITPLINLVVWLFSLVVLVSVSFTYILKCIFYFEAVKREYFHPVRVNFFFAPWVVCMFLAISVPPMFSPNRKYLHPAIWCVFMGPYFFLELKIYGQWLSGGKRRLCKVANPSSHLSVVGNFVGAILASKVGWDEVAKFLWAVGFAHYLVVFVTLYQRLPTSEALPKELHPVYSMFIAAPSAASIAWNTIYGQFDGCSRTCFFIALFLYISLVARINFFTGFKFSVAWWSYTFPMTTASVATIKYAEAVPGYPSRALALTLSFISTAMVCVLFVSTLLHAFVWQTLFPNDLAIAITKRKLTREKKPFKRAYDLKRWTKQALAKKISAEKDFEAEEESHH
notes: Yeast two-hybrid fusion; in BiFC the N-terminal half of YFP was fused to the C-terminus of SLAC1 (SLAC1-nYFP); also called SLAC1-nYFP
Does B3 bind [3]?
Result: binds
